Measured values published in patent US20170362301A1 (Janssen / Centocor, published 2017).
Several values for one entry are separate records, joined by “and”; a condition that tells them apart may be missing. Equal entries are not always repeated.

How the values were obtained:
[1] = biological target: T1, EGFR on cells (A431, NCI-H292, NCI-H322, NCI-H441) (human, UniProt P00533 25-1210); assay: cell-based or functional assay
[2] = biological target: T2, c-Met on cells (NCI-H441, NCI-H292, U87-MG) (human, UniProt P08581 25-1390); assay: cell-based or functional assay
T2 sequence (P08581 other isoform, or with tags, fused parts or gaps limits assumed): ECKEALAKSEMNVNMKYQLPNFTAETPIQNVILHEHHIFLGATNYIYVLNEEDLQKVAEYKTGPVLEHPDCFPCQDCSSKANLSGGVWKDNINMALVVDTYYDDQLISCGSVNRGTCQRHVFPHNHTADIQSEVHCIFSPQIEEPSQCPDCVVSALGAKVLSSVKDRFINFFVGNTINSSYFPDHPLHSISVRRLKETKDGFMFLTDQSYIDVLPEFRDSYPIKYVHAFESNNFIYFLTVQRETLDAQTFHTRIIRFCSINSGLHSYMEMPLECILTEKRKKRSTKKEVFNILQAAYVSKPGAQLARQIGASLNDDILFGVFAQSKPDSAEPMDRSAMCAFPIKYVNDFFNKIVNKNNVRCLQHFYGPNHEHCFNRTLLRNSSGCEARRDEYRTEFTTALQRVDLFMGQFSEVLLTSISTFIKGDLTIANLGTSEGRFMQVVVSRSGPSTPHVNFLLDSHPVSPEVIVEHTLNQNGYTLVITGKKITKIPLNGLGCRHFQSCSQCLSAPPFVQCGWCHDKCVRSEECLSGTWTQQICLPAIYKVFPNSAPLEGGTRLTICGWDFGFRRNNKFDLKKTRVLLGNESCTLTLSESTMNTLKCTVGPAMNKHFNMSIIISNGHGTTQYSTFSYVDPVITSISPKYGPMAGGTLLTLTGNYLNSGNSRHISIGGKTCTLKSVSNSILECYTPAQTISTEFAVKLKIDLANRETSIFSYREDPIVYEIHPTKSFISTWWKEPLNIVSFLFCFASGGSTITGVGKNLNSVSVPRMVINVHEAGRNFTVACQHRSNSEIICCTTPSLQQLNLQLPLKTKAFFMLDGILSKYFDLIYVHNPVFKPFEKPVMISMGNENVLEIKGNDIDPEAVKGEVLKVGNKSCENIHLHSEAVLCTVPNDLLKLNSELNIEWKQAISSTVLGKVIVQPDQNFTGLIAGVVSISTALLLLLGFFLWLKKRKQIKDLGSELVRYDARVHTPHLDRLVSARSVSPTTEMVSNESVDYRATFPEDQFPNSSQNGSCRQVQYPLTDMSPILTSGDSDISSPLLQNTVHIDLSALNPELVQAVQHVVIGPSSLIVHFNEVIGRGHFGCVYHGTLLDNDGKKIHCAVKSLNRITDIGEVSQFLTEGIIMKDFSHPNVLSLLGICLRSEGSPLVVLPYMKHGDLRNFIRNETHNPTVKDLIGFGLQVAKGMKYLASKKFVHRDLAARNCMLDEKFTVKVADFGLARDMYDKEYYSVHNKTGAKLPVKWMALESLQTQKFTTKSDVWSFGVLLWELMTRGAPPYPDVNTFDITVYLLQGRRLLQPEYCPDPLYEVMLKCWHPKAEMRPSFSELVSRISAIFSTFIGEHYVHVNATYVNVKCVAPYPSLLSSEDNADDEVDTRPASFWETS

[3] = biological target: T1, EGFR on cells (A431, NCI-H292, …); assay: cell-based or functional assay; remark: listed apart in the source
[4] = biological target: T1, EGFR on cells (A431, NCI-H292, …); assay: cell-based or functional assay; remark: listed apart in the source
[5] = biological target: T2, c-Met on cells (NCI-H441, NCI-H292, …); assay: cell-based or functional assay; remark: listed apart in the source
[6] = biological target: T1, EGFR on cells (A431, NCI-H292, …); assay: cell-based or functional assay; remark: listed apart in the source
[7] = biological target: T3, EGFR (form in the assay not stated) (human, UniProt P00533 25-645, limits assumed); assay: ELISA, NEM conjugate 10 nM (the reference itself)
[8] = biological target: T3, EGFR (form in the assay not stated); assay: ELISA, NEM conjugate 100 nM (the reference itself)
[9] = biological target: T3, EGFR (form in the assay not stated); assay: ELISA, NEM conjugate 500 nM (the reference itself)

B1: ECB38 (designed binder)
chain: MLPAPKNLVVSEVTEDSARLSWDDPWAFYESFLIQYQESEKVGEAIVLTVPGSERSYDLTGLKPGTEYTVSIYGVHNVYKDTNMRGLPLSAIFTTAPAPAPAPAPLPAPKNLVVSRVTEDSARLSWTAPDAAFDSFWIRYFEFLGSGEAIVLTVPGSERSYDLTGLKPGTEYVVNIMGVKGGKISPPLSAIFTTAPAPAPAPAPLAEAKVLANRELDKYGVSDYYKNLINNAKTVEGVKALLDEILAALP
[1]
  EGF-stimulated EGFR phosphorylation in NCI-H292 cells IC50: 2.3 nM
[2]
  HGF-stimulated c-Met phosphorylation in NCI-H292 cells IC50: 1.3 nM

B2: ECB147v6-PEG24 (designed binder)
chain: MLPAPKNLVVSEVTEDSARLSWDDPWAFYESFLIQYQESEKVGEAIVLTVPGSERSYDLTGLCPGTEYTVSIYGVHNVYKDTNMRGLPLSAIFTTAPAPAPAPAPLPAPKNLVVSRVTEDSARLSWTAPDAAFDSFWIRYFEFLGSGEAIVLTVPGSERSYDLTGLKPGTEYVVNIMSVKGGSISPPLSAIFTTAPAPAPAPAPLAEAKVLANRELDKYGVSDYYKNLINNAKTVEGVKALLDEILAALP
modifications: PEG24-maleimide on the engineered cysteine
[1]
  EGF-stimulated EGFR phosphorylation in NCI-H292 cells IC50: 1.4 nM
[2]
  HGF-stimulated c-Met phosphorylation in NCI-H292 cells IC50: 0.4 nM

B3: ECB147v5-PEG24 (designed binder)
chain: MLPAPKNLVVSEVTEDSARLSWDDPWAFYESFLIQYQESEKVGEAIVLTVPGSERSYDLTGLCPGTEYTVSIYGVHNVYKDTNMRGLPLSAIFTTAPAPAPAPAPLPAPKNLVVSRVTEDSARLSWTAPDAAFDSFWIRYFEFLGSGEAIVLTVPGSERSYDLTGLCPGTEYVVNIMSVKGGSISPPLSAIFTTAPAPAPAPAPLAEAKVLANRELDKYGVSDYYKNLINNAKTVEGVKALLDEILAALP
modifications: PEG24-maleimide on the engineered cysteines
[1]
  EGF-stimulated EGFR phosphorylation in NCI-H292 cells IC50: 0.9 nM
[2]
  HGF-stimulated c-Met phosphorylation in NCI-H292 cells IC50: 0.4 nM

B4: ECB147v7-PEG24 (designed binder)
chain: MLPAPKNLVVSEVTEDSARLSWDDPWAFYESFLIQYQESEKVGEAIVLTVPGSERSYDLTGLKPGTEYTVSIYGVHNVYKDTNMRGLPLSAIFTTAPCPAPAPAPLPAPKNLVVSRVTEDSARLSWTAPDAAFDSFWIRYFEFLGSGEAIVLTVPGSERSYDLTGLKPGTEYVVNIMSVKGGSISPPLSAIFTTAPCPAPAPAPLAEAKVLANRELDKYGVSDYYKNLINNAKTVEGVKALLDEILAALP
modifications: PEG24-maleimide on the engineered cysteines
[1]
  EGF-stimulated EGFR phosphorylation in NCI-H292 cells IC50: 1.4 nM
[2]
  HGF-stimulated c-Met phosphorylation in NCI-H292 cells IC50: 0.5 nM

B5: ECB147v3-PEG24 (designed binder)
chain: MLPAPKNLVVSEVTEDSARLSWDDPWAFYESFLIQYQESEKVGEAIVLTVPGSERSYDLTGLCPGTEYTVSIYGVHNVYKDTNMRGLPLSAIFTTAPCPAPAPAPLPAPKNLVVSRVTEDSARLSWTAPDAAFDSFWIRYFEFLGSGEAIVLTVPGSERSYDLTGLCPGTEYVVNIMSVKGGSISPPLSAIFTTAPCPAPAPAPLAEAKVLANRELDKYGVSDYYKNLINNAKTVEGVKALLDEILAALP
modifications: PEG24-maleimide on the engineered cysteines
[1]
  EGF-stimulated EGFR phosphorylation in NCI-H292 cells IC50: 1.6 nM
[2]
  HGF-stimulated c-Met phosphorylation in NCI-H292 cells IC50: 0.5 nM

B6: ECB5 (designed binder)
chain: MLPAPKNLVVSEVTEDSARLSWADPHGFYDSFLIQYQESEKVGEAIVLTVPGSERSYDLTGLKPGTEYTVSIYGVHNVYKDTNMRGLPLSAIFTTGGGGSGGGGSGGGGSGGGGSMLPAPKNLVVSRVTEDSARLSWTAPDAAFDSFWIRYFEFLGSGEAIVLTVPGSERSYDLTGLKPGTEYVVNIMGVKGGKISPPLSAIFTT
[3]
  fold decrease of IC50 for inhibition of EGFR phosphorylation in NCI-H441 cells against monospecific P53A1R5-17v2: 30 fold

B7: P54CR4-31 (designed binder)
chain: LPAPKNLVVSEVTEDSLRLSWTAPDAAFDSFLIQYQESEKVGEAINLTVPGSERSYDLTGLKPGTEYTVSIYGVLGSYVFEHDVMLPLSAEFTT
[4]
  Phospho-EGFR IC50, A431 cells: 179 nM

B8: P53A1R5-17 (designed binder)
chain: LPAPKNLVVSEVTEDSLRLSWADPHGFYDSFLIQYQESEKVGEAINLTVPGSERSYDLTGLKPGTEYTVSIYGVHNVYKDTNMRGLPLSAEFTT
[4]
  Phospho-EGFR IC50, A431 cells: > 2500 nM

B9: P54AR4-48 (designed binder)
chain: LPAPKNLVVSEVTEDSLRLSWDDPRGFYESFLIQYQESEKVGEAINLTVPGSERSYDLTGLKPGTEYTVSIYGVHNVYKDTNMRGLPLSAEFTT
[4]
  Phospho-EGFR IC50, A431 cells: 170 nM

B10: P54AR4-17 (designed binder)
chain: LPAPKNLVVSEVTEDSLRLSWTYDRDGYDSFLIQYQESEKVGEAINLTVPGSERSYDLTGLKPGTEYTVSIYGVHNVYKDTNMRGLPLSAEFTT
[4]
  Phospho-EGFR IC50, A431 cells: 184 nM

B11: P54AR4-83 (designed binder)
chain: LPAPKNLVVSEVTEDSLRLSWDDPWAFYESFLIQYQESEKVGEAINLTVPGSERSYDLTGLKPGTEYTVSIYGVHNVYKDTNMRGLPLSAEFTT
[4]
  Phospho-EGFR IC50, A431 cells: 18 nM

B12: P54AR4-73 (designed binder)
chain: LPAPKNLVVSEVTEDSLRLSWTWPYADLDSFLIQYQESEKVGEAINLTVPGSERSYDLTGLKPGTEYTVSIYGVHNVYKDTNMRGLPLSAEFTT
[4]
  Phospho-EGFR IC50, A431 cells: 141 nM

B13: P114AR5P74-A5 (designed binder)
chain: LPAPKNLVVSRVTEDSARLSWTAPDAAFDSFWIRYDEVVVGGEAIVLTVPGSERSYDLTGLKPGTEYYVNILGVKGGSISVPLSAIFTT
[5]
  c-Met phosphorylation in NCI-H292 cells IC50: 610 nM

B14: 83v2cy5-mal-PEG4-VK-MMAE (designed binder)
chain: MLPAPKNLVVSEVTEDSARLSWDDPWAFYESFLIQYQESEKVGEAIVLTVPGSERSYDLTGLKPGTEYTVSIYGVHNVYKDTNMRGLPLSAIFTTGGHHHHHHC
modifications: mal-PEG4-VK-MMAE on the cysteine
[6]
  IC50 A431 (nM), cell viability: 19.6 nM

B15: 83v2His6-cys, NEM conjugate (designed binder)
chain: MLPAPKNLVVSEVTEDSARLSWDDPWAFYESFLIQYQESEKVGEAIVLTVPGSERSYDLTGLKPGTEYTVSIYGVHNVYKDTNMRGLPLSAIFTTGGHHHHHHC
modifications: NEM on the C-terminal Cys
notes: also called P54AR4-83v2-cys; P54AR4-83v2 parent
[7]
  binding ratio vs parent P54AR4-83v2: 1 ratio
[8]
  binding ratio vs parent P54AR4-83v2: 1 ratio
[9]
  binding ratio vs parent P54AR4-83v2: 1 ratio

B16: 83v2cy5-mal-PEG4-VK-MMAF (designed binder)
chain: MLPAPKNLVVSEVTEDSARLSWDDPWAFYESFLIQYQESEKVGEAIVLTVPGSERSYDLTGLKPGTEYTVSIYGVHNVYKDTNMRGLPLSAIFTTGGHHHHHHC
modifications: mal-PEG4-VK-MMAF on the cysteine
[6]
  IC50 A431 (nM), cell viability: 3.9 nM

B17: 83v2cy5-mal-PEG4-VC-MMAF (designed binder)
chain: MLPAPKNLVVSEVTEDSARLSWDDPWAFYESFLIQYQESEKVGEAIVLTVPGSERSYDLTGLKPGTEYTVSIYGVHNVYKDTNMRGLPLSAIFTTGGHHHHHHC
modifications: mal-PEG4-VC-MMAF on the cysteine
[6]
  IC50 A431 (nM), cell viability: 1.6 nM
  IC50 H1537 (nM), cell viability: 1.19 nM and 1.05 nM

B18: 83v2cy5-mal-PEG4-MMAF (designed binder)
chain: MLPAPKNLVVSEVTEDSARLSWDDPWAFYESFLIQYQESEKVGEAIVLTVPGSERSYDLTGLKPGTEYTVSIYGVHNVYKDTNMRGLPLSAIFTTGGHHHHHHC
modifications: mal-PEG4-MMAF on the cysteine
[6]
  IC50 A431 (nM), cell viability: > 1000 nM
